Experimental data from patent publication US20150197559A1 (University of California, published 2015).

Columns and labels:
[1] = target: T1, BoNT/B1 (Clostridium botulinum, UniProt P10844 2-1291); assay: yeast-displayed scFv, flow cytometry; reference parental scFv 1B18
T1 sequence: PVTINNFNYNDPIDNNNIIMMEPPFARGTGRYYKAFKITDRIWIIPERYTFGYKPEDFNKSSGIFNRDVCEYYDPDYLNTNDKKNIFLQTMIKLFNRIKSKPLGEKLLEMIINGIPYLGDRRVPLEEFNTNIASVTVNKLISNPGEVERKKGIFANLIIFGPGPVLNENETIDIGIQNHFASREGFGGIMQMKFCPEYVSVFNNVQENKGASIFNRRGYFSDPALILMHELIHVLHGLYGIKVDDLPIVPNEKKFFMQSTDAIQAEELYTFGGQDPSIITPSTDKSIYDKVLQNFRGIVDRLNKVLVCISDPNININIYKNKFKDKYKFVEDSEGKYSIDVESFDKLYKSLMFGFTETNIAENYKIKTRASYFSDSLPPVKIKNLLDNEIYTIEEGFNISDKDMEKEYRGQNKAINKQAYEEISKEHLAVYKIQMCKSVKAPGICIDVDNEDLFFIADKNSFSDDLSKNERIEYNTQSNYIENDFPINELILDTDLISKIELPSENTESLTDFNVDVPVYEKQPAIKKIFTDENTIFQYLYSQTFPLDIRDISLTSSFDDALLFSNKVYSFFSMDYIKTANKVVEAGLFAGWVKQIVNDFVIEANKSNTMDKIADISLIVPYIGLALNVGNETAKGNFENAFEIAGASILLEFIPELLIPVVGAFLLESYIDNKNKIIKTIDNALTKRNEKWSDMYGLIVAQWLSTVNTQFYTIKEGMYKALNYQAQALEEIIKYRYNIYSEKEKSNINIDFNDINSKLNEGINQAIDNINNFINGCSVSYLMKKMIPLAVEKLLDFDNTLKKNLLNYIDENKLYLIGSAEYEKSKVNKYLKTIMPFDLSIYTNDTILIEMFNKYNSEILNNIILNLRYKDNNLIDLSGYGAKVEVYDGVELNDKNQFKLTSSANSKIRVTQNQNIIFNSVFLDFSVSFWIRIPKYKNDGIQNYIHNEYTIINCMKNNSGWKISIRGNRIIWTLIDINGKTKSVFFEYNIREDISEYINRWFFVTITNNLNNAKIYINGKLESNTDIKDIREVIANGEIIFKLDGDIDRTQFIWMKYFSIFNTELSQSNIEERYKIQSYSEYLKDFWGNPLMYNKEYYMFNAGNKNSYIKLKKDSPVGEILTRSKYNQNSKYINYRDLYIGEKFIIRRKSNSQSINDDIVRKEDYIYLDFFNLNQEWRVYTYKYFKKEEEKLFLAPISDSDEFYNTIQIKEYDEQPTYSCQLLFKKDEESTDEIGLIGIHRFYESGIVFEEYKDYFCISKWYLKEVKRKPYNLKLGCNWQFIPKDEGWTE

[2] = target: T1, BoNT/B1; assay: flow cytometry, yeast-displayed affinity matured scFv
[3] = target: T1, BoNT/B1; assay: KinExA flow fluorimetry, IgG in solution

| Binder | Fold increase in affinity scFv (KD wild type/KD matured) [1] [fold] | Kd [2] [nM] | Kd [3] [nM] |
| --- | --- | --- | --- |
| 2B18.1 scFv (scFv) scFv: QVQLVQSGGGLVQPGGSRRLSCAASGFYFNAYWMTWVRQAPGKGLEWVANINLDGTEIYYLDSVKGRFTVSRDNVKNSVFLQMSSLRVEDTAVYFCARLEWGGRNGWVSPWGQGTLVTVSSGGGGSGGGGSGGGGSDIVMTQSPSSLSASVGDRVSISCRASQSISSYLNWYQQKPGKAPKLLIYKTSSLESGVPSRFSGRGSGTDFTLTISSLQPEDFATYYCQQSYSTPLTFGGGTKVEIKR | 11.4 | 0.638 |  |
| 2B18.1 IgG (antibody, V domains shown) VH: QVQLVQSGGGLVQPGGSRRLSCAASGFYFNAYWMTWVRQAPGKGLEWVANINLDGTEIYYLDSVKGRFTVSRDNVKNSVFLQMSSLRVEDTAVYFCARLEWGGRNGWVSPWGQGTLVTVSS VL: DIVMTQSPSSLSASVGDRVSISCRASQSISSYLNWYQQKPGKAPKLLIYKTSSLESGVPSRFSGRGSGTDFTLTISSLQPEDFATYYCQQSYSTPLTFGGGTKVEIKR |  |  | 0.0724 |
